Two proteins from doi:10.1101/2022.05.30.493956 (bioRxiv, 2022) can be followed below.

Positions count from the first letter of the chain named. Names may count otherwise.

Series [1] deals with the molecule itself. Kind of series: far-UV circular dichroism. For orientation: CD spectra are sensitive to the conformation of chiral molecules.
Series [2] deals with the molecule itself. Kind of series: scanning electron microscopy of in vitro assembled purified protein.

B1: Full length human lamin A W514R (natural protein, UniProt P02545 1-664, looked up)
chain: METPSQRRATRSGAQASSTPLSPTRITRLQEKEDLQELNDRLAVYIDRVRSLETENAGLRLRITESEEVVSREVSGIKAAYEAELGDARKTLDSVAKERARLQLELSKVREEFKELKARNTKKEGDLIAAQARLKDLEALLNSKEAALSTALSEKRTLEGELHDLRGQVAKLEAALGEAKKQLQDEMLRRVDAENRLQTMKEELDFQKNIYSEELRETKRRHETRLVEIDNGKQREFESRLADALQELRAQHEDQVEQYKKELEKTYSAKLDNARQSAERNSNLVGAAHEELQQSRIRIDSLSAQLSQLQKQLAAKEAKLRDLEDSLARERDTSRRLLAEKEREMAEMRARMQQQLDEYQELLDIKLALDMEIHAYRKLLEGEEERLRLSPSPTSQRSRGRASSHSSQTQGGGSVTKKRKLESTESRSSFSQHARTSGRVAVEEVDEEGKFVRLRNKSNEDQSMGNWQIKRQNGDDPLLTYRFPPKFTLKAGQVVTIWAAGAGATHSPPTDLVRKAQNTWGCGNSLRTALINSTGEEVAMRKLVRSVTVVEDDEDEDGDDLLHHHHGSHCSSSGDPAEYNLRSRTVLCGTCGQPADKASASGSGAQVGGPISSGSSASSVTVTRSYRSVGGSGGGSFGDNLVTRSYLLGNSSPRTQSPQNCSIM
With B1, the binding result in series [1] is given as “binds”.

B2: Full length human lamin A protein/pre-lamin A (664 amino acids), wild type (natural protein, UniProt P02545 1-664, looked up)
chain: B1 chain with R514W
B2: the binding result in series [2] is given as “binds”.
